PMC9160799, “PET Imaging of Acidic Tumor Environment With ^89Zr-labeled pHLIP Probes” (Frontiers in Oncology, 2022)

Columns and labels:
[1] = Post-mortem biodistribution, RM-1 tumor model; type: in vivo, male athymic nude mice; conditions: male, athymic nude, mouse, in vivo, iv, 1.2 nmol, total radioactivity
Description: (§1) The media were provided by the MSK Media Preparation Core. […] Another aliquot was diluted with the medium so that 50 µL contained 1×10^6 cells.
(§2) The imaging and biodistribution studies were performed with male (RM-1 model) and female (4T1 model) athymic nude mice and the kidney-blocking experiments were performed with female SCID mice received from Charles River Laboratories (Stone Ridge, NY). After arrival, the mice were kept in the MSK vivarium for one week before any experimental handling was performed. The animals were allowed free access to water and food, and all animal care and experimental procedures were approved by the Institutional Animal Care and Use Committee (IACUC). For the subcutaneous allografts, a 1-to-1 ratio of Corning Matrigel Matrix and the cell solution was prepared and stored on ice for the injections. Each mouse received a subcutaneous injection of 100 µL (50 µL cell solution, viability > 90%, + 50 µL Matrigel) into the flank on the level of the right shoulder. The injections were performed under anesthesia (2% isoflurane, Baxter Healthcare, Deerfield, IL, USA).
(§3) The mice were intravenously injected (tail vein) with the radiolabeled pHLIP conjugates (1.2 nmol, 7.4 MBq/200 µCi, 100 µL, in sterile filtered PBS). The activity of the syringe prior to injection and after injection was used to determine the percent of injectate administered.
(§4) For the biodistribution studies the tumor-bearing mice were randomized before the injections. Only mice with suitable tumors (150–300 mm^3) were utilized. An exception was made for the 120-hour timepoint, for which only mice with smaller tumors (150 mm^3) were selected. The mice were grouped in cohorts of four. At the respective timepoint, the mice were euthanized (by CO2 asphyxiation, followed by cervical dislocation) and their blood was collected by cardiac puncture as a terminal procedure, followed by quick removal of the tumors. After this, the other organs/samples were collected. […] The exact activities of all samples of one mouse were determined by an Capintec® CRC-55tR dose calibrator. These decay-corrected measurements were used to determine a calibration factor and calibrate all counts to the corresponding activities. Activity concentrations were calculated as percentage injected dose per tissue weight (%ID/g wet tissue). All data was processed and visualized using Origin 8.5.

[2] = type: in vitro ADME, human
Description: A potential degradation of the compounds was investigated by serum stability assay. For this, 100 µL of the prepared PBS solution (containing 1.2 nmol of pHLIP and 7.4 MBq/200 µCi) was added to 900 µL of human serum (heat inactivated from Millipore Sigma) and incubated for seven days at 37°C. The release of free ^89Zr^4+ was measured by radio instant thin-layer chromatography (as described above) and the degradation of the whole construct was checked by radio high-performance liquid chromatography (HPLC). The analytical reverse-phase HPLC was performed on a Shimadzu system equipped with a Flow Count PIN diode radiodetector from BioScan, a DGU-20A degasser, two LC-20AB pumps, and an SPD-M20A photodiode array detector. A BetaBasic 18 column (150 Å, 5.0 µm, 4.6×150 mm, Thermo Scientific) was used with water (+ 0.1% trifluoroacetic acid) and acetonitrile (+ 0.1% trifluoroacetic acid) as solvents. The gradient started at 5% acetonitrile and increased to 95% over 15 minutes at a constant flowrate of 1 mL/min. The radiochemical purities of all ^89Zr-radiolabeled pHLIP conjugates were greater than 90% over the course of seven days.

4T1 tumor allografts [3] = test system: 4T1 tumor allografts; parameters: species or system female athymic nude mice; conditions: mouse, in vivo, iv
in vivo = assay: in vivo; parameters: species or system female athymic nude mice; conditions: female, athymic nude, mouse, iv, 1.2 nmol, total radioactivity
Description: as §1, §2, §3, §4

4T1 tumor allografts [4] = assay: in vivo; parameters: species or system female athymic nude mice; conditions: mouse, iv
Description: as §1, §2, §3, §4

RM-1 tumor allografts = assay: Post-mortem biodistribution, RM-1 tumor model; type: in vivo, male athymic nude mice; conditions: mouse, in vivo, iv, 1.2 nmol, 48 h
Description: as §1, §2, §3, §4

CC(=O)N(O)CCCCCNC(=O)CCC(=O)N(O)CCCCCNC(=O)CCC(=O)N(O)CCCCCNC(=O)CCN1C(=O)CC(SC[C@@H](NC(=O)[C@@H](C)N)C(=O)N[C@H](CC(=O)O)C(=O)N[C@H](CC(=O)O)C(=O)N[C@H](CCC(N)=O)C(=O)N[C@H](CC(N)=O)C(=O)N2CCC[C@@H]2C(=O)N[C@H](Cc2c[nH]c3ccccc23)C(=O)N[C@H](CCCNC(=N)N)C(=O)N[C@H](C)C(=O)N[C@H](Cc2ccc(O)cc2)C(=O)N[C@H](CC(C)C)C(=O)N[C@H](CC(=O)O)C(=O)N[C@H](CC(C)C)C(=O)N[C@H](CC(C)C)C(=O)N[C@H](Cc2ccccc2)C(=O)N2CCC[C@@H]2C(=O)N[C@@H](C(=O)N[C@H](CC(=O)O)C(=O)N[C@@H](C(=O)N[C@H](CC(C)C)C(=O)N[C@H](CC(C)C)C(=O)N[C@H](CC(C)C)C(=O)N[C@H](CC(=O)O)C(=O)N[C@H](CC(C)C)C(=O)N[C@H](CC(C)C)C(=O)N[C@H](Cc2c[nH]c3ccccc23)C(=O)O)[C@H](C)O)[C@H](C)O)C1=O (some centres unmarked) (89Zr complex, metal not drawn) [DFO-Cys-Var3]
tissue uptake at 48 h ([1]; RM-1, male athymic nude mice, 48 h p.i., i.v. 1.2 nmol, 7.4 MBq, gamma counting, mean ± S.D., n=4, read-out: Brain uptake): 0.08 ± 0.01 %ID/g
tissue uptake at 48 h ([1]; RM-1, male athymic nude mice, 48 h p.i., i.v. 1.2 nmol, 7.4 MBq, gamma counting, mean ± S.D., n=4, read-out: Pancreas uptake): 0.7 ± 0.1 %ID/g
tissue uptake at 48 h ([1]; Tibia uptake): 1.4 ± 0.1 %ID/g
radiochemical purity after incubation in human serum [2]: > 90%
biological half-life for total body excretion (4T1 tumor allografts [3]): 415 ± 10 hours
tissue uptake at 4 h (in vivo; Blood uptake): 16.1 ± 0.6 %ID/g
tissue uptake at 24 h (in vivo; Blood uptake): 5.8 ± 0.5 %ID/g
tissue uptake at 48 h (in vivo; Blood uptake): 2.2 ± 0.1 %ID/g
tissue uptake at 72 h (in vivo; Blood uptake): 1 ± 0.1 %ID/g
tissue uptake at 120 h (in vivo; Blood uptake): 0.2 ± 0.05 %ID/g
tissue uptake at 4 h (in vivo; Heart uptake): 4.2 ± 0.5 %ID/g
tissue uptake at 24 h (in vivo; Heart uptake): 3 ± 0.4 %ID/g
tissue uptake at 48 h (in vivo; Heart uptake): 2.6 ± 0.1 %ID/g
tissue uptake at 72 h (in vivo; Heart uptake): 1.9 ± 0.2 %ID/g
tissue uptake at 120 h (in vivo; Heart uptake): 1.6 ± 0.3 %ID/g
tissue uptake at 4 h (in vivo; Kidneys uptake): 19.8 ± 3.3 %ID/g
tissue uptake at 24 h (in vivo; Kidneys uptake): 44.3 ± 6.5 %ID/g
tissue uptake at 48 h (in vivo; Kidneys uptake): 47.6 ± 11.5 %ID/g
tissue uptake at 72 h (in vivo; Kidneys uptake): 46.3 ± 8.3 %ID/g
tissue uptake at 120 h (in vivo; Kidneys uptake): 35.3 ± 5.9 %ID/g
tissue uptake at 4 h (in vivo; Liver uptake): 4.8 ± 0.4 %ID/g
tissue uptake at 24 h (in vivo; Liver uptake): 6.1 ± 0.7 %ID/g
tissue uptake at 48 h (in vivo; Liver uptake): 6.6 ± 0.1 %ID/g
tissue uptake at 72 h (in vivo; Liver uptake): 6.7 ± 0.7 %ID/g
tissue uptake at 120 h (in vivo; Liver uptake): 6 ± 0.3 %ID/g
tissue uptake at 4 h (in vivo; Lungs uptake): 11.2 ± 2 %ID/g
tissue uptake at 24 h (in vivo; Lungs uptake): 3.8 ± 0.9 %ID/g
tissue uptake at 48 h (in vivo; Lungs uptake): 2.7 ± 0.3 %ID/g
tissue uptake at 72 h (in vivo; Lungs uptake): 2 ± 0.1 %ID/g
tissue uptake at 120 h (in vivo; Lungs uptake): 1.8 ± 0.3 %ID/g
tissue uptake at 24 h (in vivo; Pancreas uptake): 1.8 ± 0.2 %ID/g
tissue uptake at 48 h (in vivo; Pancreas uptake): 1.5 ± 0.4 %ID/g
tissue uptake at 72 h (in vivo; Pancreas uptake): 1.5 ± 0.2 %ID/g
tissue uptake at 120 h (in vivo; Pancreas uptake): 1.4 ± 0.1 %ID/g
tissue uptake at 4 h (in vivo; Skin uptake): 2.7 ± 0.6 %ID/g
tissue uptake at 24 h (in vivo; Skin uptake): 3.7 ± 0.4 %ID/g
tissue uptake at 48 h (in vivo; Skin uptake): 3.9 ± 0.7 %ID/g
tissue uptake at 72 h (in vivo; Skin uptake): 3.5 ± 0.6 %ID/g
tissue uptake at 120 h (in vivo; Skin uptake): 3.7 ± 0.1 %ID/g
tissue uptake at 4 h (in vivo; Spleen uptake): 2.7 ± 0.5 %ID/g
tissue uptake at 24 h (in vivo; Spleen uptake): 4.1 ± 0.7 %ID/g
tissue uptake at 48 h (in vivo; Spleen uptake): 5.1 ± 2 %ID/g
tissue uptake at 72 h (in vivo; Spleen uptake): 4.3 ± 0.4 %ID/g
tissue uptake at 120 h (in vivo; Spleen uptake): 6.1 ± 1 %ID/g
tissue uptake at 4 h (in vivo; Tibia uptake): 1.8 ± 0.2 %ID/g
tissue uptake at 24 h (in vivo; Tibia uptake): 1.8 ± 0.06 %ID/g
tissue uptake at 48 h (in vivo; Tibia uptake): 1.5 ± 0.4 %ID/g
tissue uptake at 72 h (in vivo; Tibia uptake): 1.6 ± 0.2 %ID/g
tissue uptake at 4 h (in vivo; Tumor uptake): 5.6 ± 0.8 %ID/g
tissue uptake at 24 h (in vivo; Tumor uptake): 9.4 ± 1.2 %ID/g
tissue uptake at 48 h (in vivo; Tumor uptake): 9.7 ± 1.7 %ID/g
tissue uptake at 72 h (in vivo; Tumor uptake): 9.1 ± 1 %ID/g
tissue uptake at 120 h (in vivo; Tumor uptake): 6.8 ± 0.7 %ID/g
(biological) blood clearance half-life (4T1 tumor allografts [4]): 16.0 ± 0.4 hours

CC(=O)N[C@H](C)C(=O)N[C@H](CCCCNc1c(NCCCCCN(O)C(=O)CCC(=O)NCCCCCN(O)C(=O)CCC(=O)NCCCCCN(O)C(C)=O)c(=O)c1=O)C(=O)N[C@H](CC(=O)O)C(=O)N[C@H](CC(=O)O)C(=O)N[C@H](CCC(N)=O)C(=O)N[C@H](CC(N)=O)C(=O)N1CCC[C@@H]1C(=O)N[C@H](Cc1c[nH]c2ccccc12)C(=O)N[C@H](CCCNC(=N)N)C(=O)N[C@H](C)C(=O)N[C@H](Cc1ccc(O)cc1)C(=O)N[C@H](CC(C)C)C(=O)N[C@H](CC(=O)O)C(=O)N[C@H](CC(C)C)C(=O)N[C@H](CC(C)C)C(=O)N[C@H](Cc1ccccc1)C(=O)N1CCC[C@@H]1C(=O)N[C@@H](C(=O)N[C@H](CC(=O)O)C(=O)N[C@@H](C(=O)N[C@H](CC(C)C)C(=O)N[C@H](CC(C)C)C(=O)N[C@H](CC(C)C)C(=O)N[C@H](CC(=O)O)C(=O)N[C@H](CC(C)C)C(=O)N[C@H](CC(C)C)C(=O)N[C@H](Cc1c[nH]c2ccccc12)C(=O)N[C@H](C)C(=O)O)[C@H](C)O)[C@H](C)O (89Zr complex, metal not drawn) [DFOsqa-Lys-Var3]
tissue uptake at 48 h ([1]; Blood uptake): 0.3 ± 0.03 %ID/g
tissue uptake at 48 h ([1]; Brain uptake): 0.06 ± 0.02 %ID/g
tissue uptake at 48 h ([1]; Heart uptake): 1.6 ± 0.1 %ID/g
tissue uptake at 48 h ([1]; Kidneys uptake): 82.5 ± 14.2 %ID/g
tissue uptake at 48 h ([1]; Liver uptake): 10.8 ± 2.1 %ID/g
tissue uptake at 48 h ([1]; Lungs uptake): 2.5 ± 0.6 %ID/g
tissue uptake at 48 h ([1]; Pancreas uptake): 1.2 ± 0.1 %ID/g
tissue uptake at 48 h ([1]; Skin uptake): 2.1 ± 0.07 %ID/g
tissue uptake at 48 h ([1]; Spleen uptake): 6.4 ± 1.4 %ID/g
tissue uptake at 48 h ([1]; Tibia uptake): 1.6 ± 0.1 %ID/g
Tumor uptake (RM-1 tumor allografts): 12.4 ± 4.7 %ID/g
tissue uptake at 48 h (in vivo; Blood uptake): 0.4 ± 0.01 %ID/g
tissue uptake at 48 h (in vivo; Brain uptake): 0.04 ± 0.01 %ID/g
tissue uptake at 48 h (in vivo; Heart uptake): 1.3 ± 0.06 %ID/g
tissue uptake at 48 h (in vivo; Kidneys uptake): 82.5 ± 10.9 %ID/g
tissue uptake at 48 h (in vivo; Liver uptake): 11.2 ± 1 %ID/g
tissue uptake at 48 h (in vivo; Lungs uptake): 1.4 ± 0.2 %ID/g
tissue uptake at 48 h (in vivo; Muscle uptake): 0.5 ± 0.04 %ID/g
tissue uptake at 48 h (in vivo; Pancreas uptake): 0.8 ± 0.1 %ID/g
tissue uptake at 48 h (in vivo; Skin uptake): 2.6 ± 0.4 %ID/g
tissue uptake at 48 h (in vivo; Spleen uptake): 6.9 ± 0.6 %ID/g
tissue uptake at 48 h (in vivo; Tibia uptake): 1.5 ± 0.2 %ID/g
tissue uptake at 48 h (in vivo; Tumor uptake): 10.2 ± 1.2 %ID/g
